The record followed here is article PMC7261172, “Peptides containing the PCNA interacting motif APIM bind to the β-clamp and inhibit bacterial growth and mutagenesis” (Nucleic Acids Research, 2020).

What all share (details): both partners purified
The target of experiment [1] is T1, E. coli β-clamp, wild type, His-tagged (E. coli, UniProt P0A988 1-366).
T1 construct: β-clamp (β subunit of DNA polymerase III), product of the dnaN gene, E. coli; no cleavage is described; also called WT β-clamp; DNA sliding clamp; source: for NMR HisTrap FF and Superdex 200 SEC
The experiment is described as follows: NMR titration; 1D 1H NMR of the peptide with sub-stoichiometric β-clamp (100 or 50 μM peptide added 5 or 20 μM β-clamp); line broadening or loss of signal read; 298 K, 20 mM NaH2PO4, 100 mM NaCl, pH 7.4.

The target of experiment [2] is T2, E. coli β-clamp labelled with RED-maleimide dye (MST) (E. coli, UniProt P0A988 1-366, RED-maleimide fluorescent dye (RED-Maleimide Labelling Kit, NanoTemper); site not stated).
T2 construct: β-clamp (β subunit of DNA polymerase III), product of the dnaN gene, E. coli; it may or may not be the same His-tagged pET-16b construct as m1; also called fluorescent labeled β-clamp; Purified E.coli β-clamp; source: labelled with the RED-Maleimide Labelling Kit
The experiment is described as follows: MST; β-clamp labelled with RED-maleimide (3 nM stock, diluted 1:1 with ligand); peptides in 16 1:1 dilutions from 500 μM to 15 nM; 50 mM Tris-HCl pH 7.5, 150 mM NaCl, 10 mM MgCl2, 2% fetal bovine serum; Monolith NT.115; change of fluorescence analysed.

Experiment [3] addresses T3, E. coli β-clamp V151A, His-tagged (E. coli, UniProt P0A988 1-366, V151A).
T3 construct: β-clamp, product of the dnaN gene, E. coli, with V151A; Made by site-directed mutagenesis of the plasmid of m1
The experiment is described as follows: SPR; WT or mutant β-clamp immobilised by amine coupling on CM5 (about 2000 RU); octamer peptides at 4-128 μM, single-cycle; 25°C, 30 μl/min; PBS P+ (20 mM phosphate pH 7.4, 3 mM KCl, 137 mM NaCl, 0.05% P20); sensorgrams normalised to the immobilised level. (In SPR one partner is held on a chip, and binding of the other changes the refractive index at the surface.)

In experiment [4] the target is T4, E. coli β-clamp M362D, His-tagged (E. coli, UniProt P0A988 1-366, M362D).
T4 construct: β-clamp, product of the dnaN gene, E. coli, with M362D; Made by site-directed mutagenesis of the plasmid of m1
The description is as above.

Experiment [5] concerns the target T5, E. coli β-clamp H148K, His-tagged (E. coli, UniProt P0A988 1-366, H148K).
T5 construct: β-clamp, product of the dnaN gene, E. coli, with H148K; Made by site-directed mutagenesis of the plasmid of m1
Described as above.

Experiment [6] concerns the target T6, E. coli β-clamp P242D, His-tagged (E. coli, UniProt P0A988 1-366, P242D).
T6 construct: β-clamp, product of the dnaN gene, E. coli, with P242D; Made by site-directed mutagenesis of the plasmid of m1
The description is as above.

Experiment [7] concerns the target T7, E. coli β-clamp P363D, His-tagged (E. coli, UniProt P0A988 1-366, P363D).
T7 construct: β-clamp, product of the dnaN gene, E. coli, with P363D; Made by site-directed mutagenesis of the plasmid of m1
The experiment is described as above.

One may read the Kd as a measure of binding affinity in units of concentration. Low readings indicate tighter binding, high ones weaker binding.

B1: Pol III β-clamp binding peptide (Ac-EQVELEFD) (peptide)
peptide: Ac-EQVELEFD-NH2
modifications: also: TFA salt
notes: also called Pol III peptide; source: synthetic peptide; bought: Innovagen, Sweden
B1: in experiment [1], the binding result is “binds”.

B2: Cell penetrating APIM-peptide RWLVK (Ac-MD-RWLVK-WKKKRKI-RRRRRRRRRRR) (peptide)
peptide: Ac-MDRWLVKWKKKRKIRRRRRRRRRRR-NH2
modifications: also: TFA salt
notes: APIM motif RWLVK, linker WKKKRKI, cell penetrating R11; TFA salt, >90% pure; also called RWLVK-peptide; cell penetrating RWLVK-peptide; source: synthetic peptide; bought: Innovagen, Sweden
For the molecule B2, the Kd in experiment [2] was below 50 µM.

B3: Cell penetrating peptide with mutated APIM RALVK (Ac-MD-RALVK-WKKKRKI-RRRRRRRRRRR) (peptide)
peptide: Ac-MDRALVKWKKKRKIRRRRRRRRRRR-NH2
modifications: also: TFA salt
notes: mutated APIM RALVK, linker WKKKRKI, cell penetrating R11; TFA salt, >90% pure; also called RALVK-peptide; source: synthetic peptide; bought: Innovagen, Sweden
In experiment [2], B3 showed a dissociation constant (Kd) above 750 µM.

B4: Octamer APIM peptide RWLVK (Ac-MDRWLVKW) (peptide)
peptide: Ac-MDRWLVKW-NH2
modifications: also: TFA salt
notes: APIM motif RWLVK without the cell penetrating part; also called octamer peptide containing RWLVK; source: synthetic peptide; bought: Innovagen, Sweden
As to B4, the binding result in experiment [1], in experiment [3], in experiment [4], in experiment [5], in experiment [6] and in experiment [7] was “binds” in each case.

B5: Cell penetrating APIM-peptide RFSLK (Ac-MD-RFSLK-WKKKRKI-RRRRRRRRRRR) (peptide)
peptide: Ac-MDRFSLKWKKKRKIRRRRRRRRRRR-NH2
modifications: also: TFA salt
notes: APIM motif RFSLK, linker WKKKRKI, cell penetrating R11; TFA salt, >90% pure; also called RFSLK-peptide; source: synthetic peptide; bought: Innovagen, Sweden
B5: the Kd in experiment [2] is below 50 µM.
